T1: EsCas13d, nuclease-dead (Eubacterium siraeum, UniProt B0MS50, R295A;H300A;R849A;H854A)
T1 sequence: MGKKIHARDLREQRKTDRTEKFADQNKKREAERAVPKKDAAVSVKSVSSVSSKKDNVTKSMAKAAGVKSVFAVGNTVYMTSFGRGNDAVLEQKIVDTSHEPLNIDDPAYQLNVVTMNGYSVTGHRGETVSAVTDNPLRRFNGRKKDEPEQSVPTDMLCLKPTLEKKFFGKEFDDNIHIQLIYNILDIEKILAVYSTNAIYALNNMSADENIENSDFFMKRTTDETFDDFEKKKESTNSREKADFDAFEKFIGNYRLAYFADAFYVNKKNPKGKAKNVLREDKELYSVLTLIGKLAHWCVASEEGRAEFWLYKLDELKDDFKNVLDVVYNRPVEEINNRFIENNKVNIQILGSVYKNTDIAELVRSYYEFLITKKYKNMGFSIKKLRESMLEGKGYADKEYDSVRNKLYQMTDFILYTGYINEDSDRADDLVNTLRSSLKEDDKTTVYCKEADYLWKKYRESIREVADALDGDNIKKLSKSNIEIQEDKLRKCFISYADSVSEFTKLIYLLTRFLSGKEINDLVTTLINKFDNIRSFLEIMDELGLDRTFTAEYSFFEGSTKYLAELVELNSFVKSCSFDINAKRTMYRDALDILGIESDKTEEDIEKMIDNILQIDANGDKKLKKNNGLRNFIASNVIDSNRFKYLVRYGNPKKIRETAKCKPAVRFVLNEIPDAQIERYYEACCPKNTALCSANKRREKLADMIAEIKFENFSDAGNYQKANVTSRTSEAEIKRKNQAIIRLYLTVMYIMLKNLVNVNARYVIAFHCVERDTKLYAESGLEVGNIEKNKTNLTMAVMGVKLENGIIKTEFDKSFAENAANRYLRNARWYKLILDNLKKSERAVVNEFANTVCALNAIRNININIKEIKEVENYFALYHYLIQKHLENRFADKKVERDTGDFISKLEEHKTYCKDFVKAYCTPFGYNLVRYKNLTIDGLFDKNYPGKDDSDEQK

B1: target 1 del1,del13 (mixed)
RNA 1: CACCCGUGCAAAAAUGCAGGGGUCUAAAACUGAGCGGAUAACCUCUCUAUGG
RNA 2: GGGAAUGGAUCCACAUCUACGAAUUCGUACCAUAGAGAGUUAUCCGCUCCCGAGAUCGGAAGAGCACACGU
B2: target 1 del2,del13 (mixed)
RNA 1: CACCCGUGCAAAAAUGCAGGGGUCUAAAACUGAGCGGAUAACCUCUCUAUGG
RNA 2: GGGAAUGGAUCCACAUCUACGAAUUCGUACCAUAGAGAGUUAUCCGCUACCGAGAUCGGAAGAGCACACGU
B3: target 1 A16G,C21A (mixed)
RNA 1: CACCCGUGCAAAAAUGCAGGGGUCUAAAACUGAGCGGAUAACCUCUCUAUGG
RNA 2: GGGAAUGGAUCCACAUCUACGAAUUCGUACAAUAGGGAGGUUAUCCGCUCACCGAGAUCGGAAGAGCACACGU
B4: target 1 insG 3' of 6,insG 3' of 1 (mixed)
RNA 1: CACCCGUGCAAAAAUGCAGGGGUCUAAAACUGAGCGGAUAACCUCUCUAUGG
RNA 2: GGGAAUGGAUCCACAUCUACGAAUUCGUACCAUAGAGAGGUUAUCCGGCUCAGCCGAGAUCGGAAGAGCACACGU
B5: target 1 A18U,U19C (mixed)
RNA 1: CACCCGUGCAAAAAUGCAGGGGUCUAAAACUGAGCGGAUAACCUCUCUAUGG
RNA 2: GGGAAUGGAUCCACAUCUACGAAUUCGUACCACUGAGAGGUUAUCCGCUCACCGAGAUCGGAAGAGCACACGU
B6: target 1 insU 3' of 9,insA 3' of 3 (mixed)
RNA 1: CACCCGUGCAAAAAUGCAGGGGUCUAAAACUGAGCGGAUAACCUCUCUAUGG
RNA 2: GGGAAUGGAUCCACAUCUACGAAUUCGUACCAUAGAGAGGUUAUUCCGCUACACCGAGAUCGGAAGAGCACACGU
B7: target 1 C7G,G15U (mixed)
RNA 1: CACCCGUGCAAAAAUGCAGGGGUCUAAAACUGAGCGGAUAACCUCUCUAUGG
RNA 2: GGGAAUGGAUCCACAUCUACGAAUUCGUACCAUAGAUAGGUUAUGCGCUCACCGAGAUCGGAAGAGCACACGU
B8: target 1 insA 3' of 10,insG 3' of 8 (mixed)
RNA 1: CACCCGUGCAAAAAUGCAGGGGUCUAAAACUGAGCGGAUAACCUCUCUAUGG
RNA 2: GGGAAUGGAUCCACAUCUACGAAUUCGUACCAUAGAGAGGUUAAUGCCGCUCACCGAGAUCGGAAGAGCACACGU
B9: target 1 insA 3' of 13,insA 3' of 7 (mixed)
RNA 1: CACCCGUGCAAAAAUGCAGGGGUCUAAAACUGAGCGGAUAACCUCUCUAUGG
RNA 2: GGGAAUGGAUCCACAUCUACGAAUUCGUACCAUAGAGAGAGUUAUCACGCUCACCGAGAUCGGAAGAGCACACGU
B10: target 1 del19 (mixed)
RNA 1: CACCCGUGCAAAAAUGCAGGGGUCUAAAACUGAGCGGAUAACCUCUCUAUGG
RNA 2: GGGAAUGGAUCCACAUCUACGAAUUCGUACCAAGAGAGGUUAUCCGCUCACCGAGAUCGGAAGAGCACACGU
B11: target 1 U3C,C7U (mixed)
RNA 1: CACCCGUGCAAAAAUGCAGGGGUCUAAAACUGAGCGGAUAACCUCUCUAUGG
RNA 2: GGGAAUGGAUCCACAUCUACGAAUUCGUACCAUAGAGAGGUUAUUCGCCCACCGAGAUCGGAAGAGCACACGU
B12: target 1 C7G,U10A (mixed)
RNA 1: CACCCGUGCAAAAAUGCAGGGGUCUAAAACUGAGCGGAUAACCUCUCUAUGG
RNA 2: GGGAAUGGAUCCACAUCUACGAAUUCGUACCAUAGAGAGGUAAUGCGCUCACCGAGAUCGGAAGAGCACACGU
B13: target 1 C4A,G12C (mixed)
RNA 1: CACCCGUGCAAAAAUGCAGGGGUCUAAAACUGAGCGGAUAACCUCUCUAUGG
RNA 2: GGGAAUGGAUCCACAUCUACGAAUUCGUACCAUAGAGAGCUUAUCCGAUCACCGAGAUCGGAAGAGCACACGU
B14: target 1 G13A,G17A (mixed)
RNA 1: CACCCGUGCAAAAAUGCAGGGGUCUAAAACUGAGCGGAUAACCUCUCUAUGG
RNA 2: GGGAAUGGAUCCACAUCUACGAAUUCGUACCAUAAAGAAGUUAUCCGCUCACCGAGAUCGGAAGAGCACACGU
B15: target 1 insU 3' of 21,insC 3' of 13 (mixed)
RNA 1: CACCCGUGCAAAAAUGCAGGGGUCUAAAACUGAGCGGAUAACCUCUCUAUGG
RNA 2: GGGAAUGGAUCCACAUCUACGAAUUCGUACCUAUAGAGAGCGUUAUCCGCUCACCGAGAUCGGAAGAGCACACGU
B16: target 1 G5A,C6U (mixed)
RNA 1: CACCCGUGCAAAAAUGCAGGGGUCUAAAACUGAGCGGAUAACCUCUCUAUGG
RNA 2: GGGAAUGGAUCCACAUCUACGAAUUCGUACCAUAGAGAGGUUAUCUACUCACCGAGAUCGGAAGAGCACACGU
B17: target 1 insG 3' of 14,insU 3' of 9 (mixed)
RNA 1: CACCCGUGCAAAAAUGCAGGGGUCUAAAACUGAGCGGAUAACCUCUCUAUGG
RNA 2: GGGAAUGGAUCCACAUCUACGAAUUCGUACCAUAGAGAGGGUUAUUCCGCUCACCGAGAUCGGAAGAGCACACGU
B18: target 1 insC 3' of 11,insC 3' of 9 (mixed)
RNA 1: CACCCGUGCAAAAAUGCAGGGGUCUAAAACUGAGCGGAUAACCUCUCUAUGG
RNA 2: GGGAAUGGAUCCACAUCUACGAAUUCGUACCAUAGAGAGGUCUACUCCGCUCACCGAGAUCGGAAGAGCACACGU
B19: target 1 insA 3' of 21,insU 3' of 14 (mixed)
RNA 1: CACCCGUGCAAAAAUGCAGGGGUCUAAAACUGAGCGGAUAACCUCUCUAUGG
RNA 2: GGGAAUGGAUCCACAUCUACGAAUUCGUACCAAUAGAGAUGGUUAUCCGCUCACCGAGAUCGGAAGAGCACACGU
B20: target 1 C6A,C22A (mixed)
RNA 1: CACCCGUGCAAAAAUGCAGGGGUCUAAAACUGAGCGGAUAACCUCUCUAUGG
RNA 2: GGGAAUGGAUCCACAUCUACGAAUUCGUAACAUAGAGAGGUUAUCAGCUCACCGAGAUCGGAAGAGCACACGU
B21: target 1 insC 3' of 10,insA 3' of 10 (mixed)
RNA 1: CACCCGUGCAAAAAUGCAGGGGUCUAAAACUGAGCGGAUAACCUCUCUAUGG
RNA 2: GGGAAUGGAUCCACAUCUACGAAUUCGUACCAUAGAGAGGUUCAAUCCGCUCACCGAGAUCGGAAGAGCACACGU
B22: target 1 G17C,C22A (mixed)
RNA 1: CACCCGUGCAAAAAUGCAGGGGUCUAAAACUGAGCGGAUAACCUCUCUAUGG
RNA 2: GGGAAUGGAUCCACAUCUACGAAUUCGUAACAUACAGAGGUUAUCCGCUCACCGAGAUCGGAAGAGCACACGU
B23: target 1 C2U,G12U (mixed)
RNA 1: CACCCGUGCAAAAAUGCAGGGGUCUAAAACUGAGCGGAUAACCUCUCUAUGG
RNA 2: GGGAAUGGAUCCACAUCUACGAAUUCGUACCAUAGAGAGUUUAUCCGCUUACCGAGAUCGGAAGAGCACACGU
B24: target 1 G5U,U10A (mixed)
RNA 1: CACCCGUGCAAAAAUGCAGGGGUCUAAAACUGAGCGGAUAACCUCUCUAUGG
RNA 2: GGGAAUGGAUCCACAUCUACGAAUUCGUACCAUAGAGAGGUAAUCCUCUCACCGAGAUCGGAAGAGCACACGU
B25: target 1 insU 3' of 21,insG 3' of 16 (mixed)
RNA 1: CACCCGUGCAAAAAUGCAGGGGUCUAAAACUGAGCGGAUAACCUCUCUAUGG
RNA 2: GGGAAUGGAUCCACAUCUACGAAUUCGUACCUAUAGAGGAGGUUAUCCGCUCACCGAGAUCGGAAGAGCACACGU
B26: target 1 del15,del20 (mixed)
RNA 1: CACCCGUGCAAAAAUGCAGGGGUCUAAAACUGAGCGGAUAACCUCUCUAUGG
RNA 2: GGGAAUGGAUCCACAUCUACGAAUUCGUACCUAGAAGGUUAUCCGCUCACCGAGAUCGGAAGAGCACACGU
B27: target 1 insC 3' of 17,insA 3' of 7 (mixed)
RNA 1: CACCCGUGCAAAAAUGCAGGGGUCUAAAACUGAGCGGAUAACCUCUCUAUGG
RNA 2: GGGAAUGGAUCCACAUCUACGAAUUCGUACCAUAGCAGAGGUUAUCACGCUCACCGAGAUCGGAAGAGCACACGU
B28: target 1 insG 3' of 14,insA 3' of 13 (mixed)
RNA 1: CACCCGUGCAAAAAUGCAGGGGUCUAAAACUGAGCGGAUAACCUCUCUAUGG
RNA 2: GGGAAUGGAUCCACAUCUACGAAUUCGUACCAUAGAGAGGAGUUAUCCGCUCACCGAGAUCGGAAGAGCACACGU

Biological target: T1, EsCas13d, nuclease-dead
Test: crRNA (strand 1, pre-loaded); Mg2+; 40 mM Tris-HCl pH 7.5, 150 mM NaCl, 6 mM MgCl2, 1 mM DTT, 0.1% Tween-20, 0.2 mg/ml BSA; 25 C; 10 min per concentration, then washed
Settings: tags: His6-TwinStrep-SUMO cleaved; N-terminal SNAP kept (SNAP-Surface 488); label: 3' end held by stalled T7 RNA polymerase

Compared with B1, B2 is 2.1-fold lower in Kd: 25 ± 4 nM for the first, 11.7 ± 0.4 nM for the second. The second binds more tightly here.

First: B3
Second: B4
The Kd of the first is 8.4-fold higher: 48 ± 11 nM for the first, 5.7 ± 0.4 nM for the second.

Going from B5 to B6, the Kd falls from 64 ± 16 nM to 13.1 ± 0.7 nM (4.9-fold). The second binds more tightly here.

Compared with B7, B8 is 3-fold lower in Kd: 30 ± 4 nM for the first, 10.1 ± 0.5 nM for the second.

First: B9
Second: B10
The Kd of the first is 6.5-fold lower: 4.06 ± 0.21 nM for the first, 26.4 ± 2.2 nM for the second.

Going from B11 to B12, the Kd falls from 19.6 ± 2.2 nM to 11.7 ± 0.5 nM (1.7-fold). The second binds more tightly here.

First: B13
Second: B14
The Kd of the first is 2.1-fold lower: 31 ± 8 nM for the first, 66 ± 19 nM for the second. The first binds more tightly here.

First: B15
Second: B16
The Kd of the first is 2.4-fold higher: 32 ± 4 nM for the first, 13.1 ± 0.8 nM for the second. The second binds more tightly here.

Going from B17 to B18, the Kd falls from 81 ± 28 nM to 29.4 ± 2.5 nM (2.8-fold).

First: B19
Second: B20
The Kd of the first is 4.7-fold higher: 49 ± 11 nM for the first, 10.5 ± 0.6 nM for the second.

First: B21
Second: B22
The Kd of the first is 4.4-fold lower: 13.5 ± 1 nM for the first, roughly 60 nM for the second.

Going from B23 to B24, the Kd rises from 10.5 ± 0.5 nM to 95 ± 22 nM (9-fold). The first binds more tightly here.

B25 and B26 are within error of each other in Kd: 87 ± 23 nM for the first, 90 ± 40 nM for the second.

First: B27
Second: B28
The Kd of the first is 3.5-fold higher: 38 ± 4 nM for the first, 10.9 ± 0.5 nM for the second. The second binds more tightly here.

— PMC10786891, “Massively parallel profiling of RNA-targeting CRISPR-Cas13d”
